According to patent US20250250357A1 (NANJING ZAIMING PHARMACEUTICAL, published 2025):
Blank lines part the entries; values can stand above or below the binder they belong to.

Legend:
[1] = molecular target: T1, human MSLN-R3-his protein (human, UniProt Q13421 487-598); experiment: ELISA, coated antigen, antibody 0.001 nM
T1 construct: Made in HEK293E cells, purified on nickel column; also called hMSLN-R3-his; human MSLN-R3 protein; not shown: His tag

[2] = molecular target: T2, human MSLN-R3-3 polypeptide (human); experiment: ELISA, coated antigen, antibody 1 nM
T2 construct: Part of region R3 of human MSLN; also called hMSLN-R3-3; human MSLN-R3-3 protein
Method: (§1) The plate was sealed with a plastic film and incubated at 4° C. overnight. The next day, the plate was washed twice with PBST, and a blocking buffer [PBS+2% (w/w) BSA] was added for blocking at room temperature for 2 h. The blocking buffer was discarded, and a chimeric antibody or negative control antibody serially diluted from 100 nM was added at 50 μL/well. After incubation at 37° C. for 2 h, the plate was washed 3 times with PBST. […] After incubation at 37° C. for 2 h, the plate was washed 5 times with PBST. A TMB substrate was added at 50 μL/well for incubation at room temperature for 5-10 min, and then a stop solution (1.0 N HCl) was added at 50 μL/well.

[3] = molecular target: T1, human MSLN-R3-his protein; experiment: ELISA, coated antigen, antibody 0.01 nM
Method: as §1

[4] = molecular target: T1, human MSLN-R3-his protein; experiment: ELISA, coated antigen, antibody 0.0001 nM
[5] = molecular target: T2, human MSLN-R3-3 polypeptide; experiment: ELISA, coated antigen, antibody 0.01 nM
Method: as §1

[6] = molecular target: T2, human MSLN-R3-3 polypeptide; experiment: ELISA, coated antigen, antibody 10 nM
Method: as §1

[7] = molecular target: T2, human MSLN-R3-3 polypeptide; experiment: ELISA, coated antigen, antibody 0.0001 nM
Method: as §1

[8] = molecular target: T1, human MSLN-R3-his protein; experiment: ELISA, coated antigen, antibody 100 nM
Method: as §1

[9] = molecular target: T1, human MSLN-R3-his protein; experiment: ELISA, coated antigen, antibody 0.1 nM
Method: as §1

[10] = molecular target: T1, human MSLN-R3-his protein; experiment: ELISA, coated antigen, antibody 10 nM
Method: as §1

[11] = molecular target: T2, human MSLN-R3-3 polypeptide; experiment: ELISA, coated antigen, antibody 0.001 nM
Method: as §1

[12] = molecular target: T2, human MSLN-R3-3 polypeptide; experiment: ELISA, coated antigen, antibody 100 nM
Method: as §1

[13] = molecular target: T2, human MSLN-R3-3 polypeptide; experiment: ELISA, coated antigen, no antibody (blank)
[14] = molecular target: T1, human MSLN-R3-his protein; experiment: ELISA, coated antigen, no antibody (blank)
Method: as §1

[15] = molecular target: T1, human MSLN-R3-his protein; experiment: ELISA, coated antigen, antibody 1 nM
Method: as §1

[16] = molecular target: T2, human MSLN-R3-3 polypeptide; experiment: ELISA, coated antigen, antibody 0.1 nM
Method: as §1

[17] = molecular target: T3, human MSLN-R1-his protein (human, UniProt Q13421 296-390); experiment: ELISA, coated antigen; antibody 10 nM
T3 construct: also called human MSLN-R1 protein; hMSLN-R1-his; not shown: His tag

[18] = molecular target: T4, human MSLN-FL-his protein (human, UniProt Q13421 296-580); experiment: ELISA, coated antigen; antibody 0.1 nM
T4 construct: also called human MSLN full-length protein; hMSLN-FL-his; not shown: His tag

[19] = molecular target: T5, human MSLN-R2-his protein (human, UniProt Q13421 391-486); experiment: ELISA, coated antigen; antibody 10 nM
T5 construct: also called human MSLN-R2 protein; hMSLN-R2-his; not shown: His tag

[20] = molecular target: T4, human MSLN-FL-his protein; experiment: ELISA, coated antigen; antibody 10 nM
Method: as §1

[21] = molecular target: T3, human MSLN-R1-his protein; experiment: ELISA, coated antigen; antibody 0.0001 nM
Method: as §1

[22] = molecular target: T3, human MSLN-R1-his protein; experiment: ELISA, coated antigen; antibody 0.01 nM
Method: as §1

[23] = molecular target: T3, human MSLN-R1-his protein; experiment: ELISA, coated antigen; antibody 1 nM
Method: as §1

[24] = molecular target: T5, human MSLN-R2-his protein; experiment: ELISA, coated antigen; antibody 0.1 nM
Method: as §1

[25] = molecular target: T4, human MSLN-FL-his protein; experiment: ELISA, coated antigen; antibody 0.001 nM
Method: as §1

[26] = molecular target: T3, human MSLN-R1-his protein; experiment: ELISA, coated antigen; antibody 0.1 nM
Method: as §1

[27] = molecular target: T4, human MSLN-FL-his protein; experiment: ELISA, coated antigen; no antibody (blank, column 'none')
Method: as §1

[28] = molecular target: T3, human MSLN-R1-his protein; experiment: ELISA, coated antigen; antibody 0.001 nM
Method: as §1

[29] = molecular target: T4, human MSLN-FL-his protein; experiment: ELISA, coated antigen; antibody 100 nM
Method: as §1

[30] = molecular target: T3, human MSLN-R1-his protein; experiment: ELISA, coated antigen; antibody 100 nM
Method: as §1

[31] = molecular target: T5, human MSLN-R2-his protein; experiment: ELISA, coated antigen; antibody 1 nM
Method: as §1

[32] = molecular target: T4, human MSLN-FL-his protein; experiment: ELISA, coated antigen; antibody 1 nM
Method: as §1

[33] = molecular target: T3, human MSLN-R1-his protein; experiment: ELISA, coated antigen; no antibody (blank, column 'none')
Method: as §1

[34] = molecular target: T4, human MSLN-FL-his protein; experiment: ELISA, coated antigen; antibody 0.0001 nM
Method: as §1

[35] = molecular target: T5, human MSLN-R2-his protein; experiment: ELISA, coated antigen; antibody 0.001 nM
Method: as §1

[36] = molecular target: T5, human MSLN-R2-his protein; experiment: ELISA, coated antigen; no antibody (blank, column 'none')
Method: as §1

[37] = molecular target: T5, human MSLN-R2-his protein; experiment: ELISA, coated antigen; antibody 0.01 nM
Method: as §1

[38] = molecular target: T4, human MSLN-FL-his protein; experiment: ELISA, coated antigen; antibody 0.01 nM
Method: as §1

[39] = molecular target: T5, human MSLN-R2-his protein; experiment: ELISA, coated antigen; antibody 100 nM
Method: as §1

[40] = molecular target: T5, human MSLN-R2-his protein; experiment: ELISA, coated antigen; antibody 0.0001 nM
Method: as §1

T5 sequence (Q13421 other isoform, or with tags, fused parts or gaps): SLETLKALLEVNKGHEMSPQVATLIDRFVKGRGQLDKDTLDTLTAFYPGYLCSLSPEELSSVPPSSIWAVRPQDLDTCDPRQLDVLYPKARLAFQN
T1 sequence (Q13421 495-606): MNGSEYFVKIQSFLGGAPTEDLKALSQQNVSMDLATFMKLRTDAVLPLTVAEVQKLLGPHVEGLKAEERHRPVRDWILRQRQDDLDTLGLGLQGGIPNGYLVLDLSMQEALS
T4 sequence (Q13421 other isoform, or with tags, fused parts or gaps): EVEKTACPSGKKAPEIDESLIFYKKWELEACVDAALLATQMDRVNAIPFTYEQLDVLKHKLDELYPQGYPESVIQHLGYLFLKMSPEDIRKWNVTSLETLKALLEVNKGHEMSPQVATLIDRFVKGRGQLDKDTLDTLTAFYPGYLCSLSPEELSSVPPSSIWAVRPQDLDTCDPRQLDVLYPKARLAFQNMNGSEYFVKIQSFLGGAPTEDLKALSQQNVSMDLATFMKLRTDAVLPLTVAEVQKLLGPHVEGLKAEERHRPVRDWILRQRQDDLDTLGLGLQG
T3 sequence (Q13421 other isoform, or with tags, fused parts or gaps): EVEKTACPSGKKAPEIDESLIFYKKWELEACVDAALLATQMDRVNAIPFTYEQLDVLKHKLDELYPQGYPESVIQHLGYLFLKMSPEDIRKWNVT

- OD450 [1]: 0.26
- OD450 [2]: 0.13
- OD450 [3]: 1.11
- OD450 [4]: 0.12
- OD450 [5]: 0.04
- OD450 [6]: 0.67
- OD450 [7]: 0.05
- OD450 [8]: 2.28
- OD450 [9]: 1.82
- OD450 [10]: 2.36
- OD450 [11]: 0.04
- OD450 [12]: 1.99
- OD450 [13]: 0.05
- OD450 [14]: 0.05
- OD450 [15]: 2.32
- OD450 [16]: 0.05
B1: S009-F5-9.16 chimeric antibody (antibody, human IgG1, kappa, V domains shown)
VH: EVQLRQSGPVLVKPGASVKMSCKASGYTFTDYFMNWVKPSHGKSLEWIGVINPSNGVINYNQRFKGKATLTVDKSSSTAYMELNSLTSEDSAVYYCARSYDFAWFAYWGQGTLVTVSA
VL: DVLMTQTPLSLPVSLGDQASISCRSSQNIVHSNGNTYLEWYLQKPGQSPKLLIYTVSNRFSGVPDRFSGSGSGTDFTLKISRVEAEDLGVYYCFQGSHVPYTFGGGTKLEIKR
notes: Human-murine chimeric antibody, human IgG1/kappa constant regions

- OD450 [1]: 0.09
- OD450 [2]: 0.05
- OD450 [3]: 0.41
- OD450 [4]: 0.06
- OD450 [5]: 0.05
- OD450 [6]: 0.06
- OD450 [7]: 0.06
- OD450 [8]: 2.1
- OD450 [9]: 1.31
- OD450 [10]: 1.93
- OD450 [11]: 0.05
- OD450 [12]: 0.14
- OD450 [13]: 0.07
- OD450 [14]: 0.07
- OD450 [15]: 1.82
- OD450 [16]: 0.05
B2: S009-F4-127.10 chimeric antibody (antibody, human IgG1, kappa, V domains shown)
VH: EVQLQQSGPVLVKPGASVKMSCKASGYTFTDYYMNWVKQSHGKSPEWIGVINPYNDVISYNQKFKGKATLTVDKSSSTAYMELNSLTSEDSAVYYCANYGSSYYAMDYWGQGTSVTVSS
VL: DVVMTQTPLSLSVSLGDQASISCRSSQSLVHSNGNTYLQWSLQKPGQSPNLLIYKVSNRFSGVPDRFSGSGSGTDFTLKISRVEAEDLGVYFCSQTTHVPFTFGGGTKLEIRR
notes: as for B1

- OD450 [17]: 0.06 OD450
- OD450 [18]: 1.57 OD450
- OD450 [19]: 0.06 OD450
- OD450 [20]: 1.84 OD450
- OD450 [21]: 0.05 OD450
- OD450 [22]: 0.05 OD450
- OD450 [23]: 0.05 OD450
- OD450 [24]: 0.05 OD450
- OD450 [25]: 0.13 OD450
- OD450 [26]: 0.05 OD450
- OD450 [27]: 0.06 OD450
- OD450 [28]: 0.05 OD450
- OD450 [29]: 1.9 OD450
- OD450 [30]: 0.07 OD450
- OD450 [31]: 0.05 OD450
- OD450 [32]: 1.79 OD450
- OD450 [33]: 0.07 OD450
- OD450 [34]: 0.06 OD450
- OD450 [35]: 0.05 OD450
- OD450 [36]: 0.07 OD450
- OD450 [37]: 0.05 OD450
- OD450 [38]: 0.57 OD450
- OD450 [39]: 0.07 OD450
- OD450 [40]: 0.06 OD450
B3: S009-F4-94.15 (antibody, human IgG1, kappa, V domains shown)
VH: QVQLHQPGAELVRPGSSVKLSCKASGYTFTSYWVHWVQQRPRQGLEWIGNIDPSDSEIHYNQKFKDKATLTVDKSSSTAYIHLSRLTSEDSAIYYCVRGGVPWFAYWGQGTLVTVSA
VL: QIVLTQSPAIMSASPGEKVTLTCSASSSVSSTYLYWFQQKPGSSPKVWIYSTSNLASGVPARFSGSGSGTSYSLTISSMEAEDAASYFCHQWISYPYTFGGGTKLEIKR
notes: as for B1

- OD450 [1]: 0.05
- OD450 [2]: 0.05
- OD450 [3]: 0.07
- OD450 [4]: 0.05
- OD450 [5]: 0.05
- OD450 [6]: 0.06
- OD450 [7]: 0.06
- OD450 [8]: 0.1
- OD450 [9]: 0.17
- OD450 [10]: 0.07
- OD450 [11]: 0.05
- OD450 [12]: 0.09
- OD450 [13]: 0.07
- OD450 [14]: 0.07
- OD450 [15]: 0.11
- OD450 [16]: 0.05
B4: S009-F4-94.15 chimeric antibody (antibody, human IgG1, kappa, V domains shown)
VH: QVQLHQPGAELVRPGSSVKLSCKASGYTFTSYWVHWVQQRPRQGLEWIGNIDPSDSEIHYNQKFKDKATLTVDKSSSTAYIHLSRLTSEDSAIYYCVRGGVPWFAYWGQGTLVTVSA
VL: QIVLTQSPAIMSASPGEKVTLTCSASSSVSSTYLYWFQQKPGSSPKVWIYSTSNLASGVPARFSGSGSGTSYSLTISSMEAEDAASYFCHQWISYPYTFGGGTKLEIKR
notes: Human-murine chimeric antibody: murine VH/VL on human IgG1 heavy and kappa light constant regions

- OD450 [1]: 0.05
- OD450 [2]: 0.04
- OD450 [3]: 0.04
- OD450 [4]: 0.04
- OD450 [5]: 0.05
- OD450 [6]: 0.04
- OD450 [7]: 0.05
- OD450 [8]: 0.08
- OD450 [9]: 0.04
- OD450 [10]: 0.05
- OD450 [11]: 0.04
- OD450 [12]: 0.07
- OD450 [13]: 0.04
- OD450 [14]: 0.05
- OD450 [15]: 0.04
- OD450 [16]: 0.05
B5: S009-F6-76.1 chimeric antibody (antibody, human IgG1, kappa, V domains shown)
VH: QVQLQQSGPELVKPGASVKISCKASGYTFTDYYINWVKQRPGQGLEWIGWIFPGRGSTFYYEKFKGKATLTVDKSSSTAYMLLSSLTSEDSAVYFCARRGDSAGYEDLDYWGQGTSVTVSS
VL: NIVMTQSPKFMSMSVGERVTLSCKASENVVTYVSWYQQKPKQSPKLLIYGASKRYTGVPDRFTGSGSATDFTLTISSVQAEDLGDYHCGQSYSYPYTFGGGTKLEIKR
notes: as for B1

- OD450 [2]: 0.05
- OD450 [5]: 0.04
- OD450 [6]: 0.05
- OD450 [7]: 0.04
- OD450 [11]: 0.04
- OD450 [12]: 0.09
- OD450 [13]: 0.05
- OD450 [16]: 0.04
B6: S009-F6-62.5 chimeric antibody (antibody, human IgG1, kappa, V domains shown)
VH: QVQLQQPGTELVKPGASVKLSCRASGYTFTAYWMHWVKQRPGQGLEWIGNINPSNGGTDFNEKFKSKATLTVDKSSSTAYMQLSSLTSEDSAVYYCARGRGYFDVWGTGTTVTVSS
VL: DILLTQSPAILSVSPGERVSFSCRASKNIGTSIHWYQQRTNGSPRLLIKYASESISGIPSRFSGSGSGTDFTLNINSVESEDIADYYCQQSNSWPTLTFGAGTKLELKR
notes: as for B1
